According to US20160304608A1 (published 2016):
Residue numbers refer to the chain shown, from its start.

Columns and labels:
[1] = biological target: T1, human FcRn (hFcRn) (human, UniProt P55899 24-297; P16213 21-119, limits assumed); assay: SPR (Biacore 3000), antibody amine-coupled on CM5, hFcRn analyte, pH 6.0, 25 C, 1:1 model
T1 construct: hFcRn was the soluble analyte in SPR; also called FcRn analyte
Method: SPR measurements were performed using a Biacore 3000. […] The sensor chip surface was regenerated with a 30 sec pulse of 10 mM glycine pH 1.5 at a flow rate of […] followed by a 15 second pulse of buffer. Measurements were performed at 25° C. using HBS-P as the running buffer. The reference flow cell was activated and blocked in a mock amine coupling reaction. The data was fit to a 1:1 binding model using Biaevalution v.4.1 software.

[2] = biological target: T1, human FcRn (hFcRn); assay: SPR (Biacore 3000), antibody amine-coupled on CM5, hFcRn analyte, pH 7.5, 25 C, 1:1 model

T1 sequence (P55899 24-297 limits assumed, chain 1 of 2): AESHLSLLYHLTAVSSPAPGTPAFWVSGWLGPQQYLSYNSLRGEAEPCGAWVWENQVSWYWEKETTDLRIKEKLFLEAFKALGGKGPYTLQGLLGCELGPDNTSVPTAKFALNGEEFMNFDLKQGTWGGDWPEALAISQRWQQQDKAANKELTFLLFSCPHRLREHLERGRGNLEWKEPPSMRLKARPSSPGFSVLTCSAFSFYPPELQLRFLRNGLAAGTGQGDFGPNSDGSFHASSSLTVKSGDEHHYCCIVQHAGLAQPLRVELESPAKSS
T1 sequence (P16213 21-119 limits assumed, chain 2 of 2): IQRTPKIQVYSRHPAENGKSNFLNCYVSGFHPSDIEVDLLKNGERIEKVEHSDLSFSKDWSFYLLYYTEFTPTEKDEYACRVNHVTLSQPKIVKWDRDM

B1: 532A-X54-B03 (cys to ala mutant of DX-2504) (antibody, V domains shown)
VH: EVQLLESGGGLVQPGGSLRLSCAASGFTFSEYAMGWVRQAPGKGLEWVSSIGSSGGQTKYADSVKGRFTISRDNSKNTLYLQMNSLRAEDTAVYYCARLAIGDSYWGQGTMVTVSS
VL: QSALTQPASVSGSPGQSITISCTGTGSDVGSYNLVSWYQQHPGKAPKLMIYGDSQRPSGVSNRFSGSKSGNTASLTISGLQAEDEADYYCASYAGSGIYVFGTGTKVTVL
notes: also called 532-X54-B03; 532A-X53-B03
- Kd [1]: 1.8 nM
- Kd [2]: 2 nM
- kon [2]: 110000 M⁻¹ s⁻¹

B2: 532A-X53-C02 (cys to ser mutant of DX-2504) (antibody, V domains shown)
VH: B1 VH
VL: B1 VL with A91S
notes: also called C54-C02
- Kd [1]: 1.4 nM
- koff [1]: 0.00043 s⁻¹
- kon [1]: 310000 M⁻¹ s⁻¹
- Kd [2]: 1.7 nM
- koff [2]: 0.00032 s⁻¹
- kon [2]: 190000 M⁻¹ s⁻¹

B3: DX-2504 anti-FcRn antibody (antibody, human IgG1, lambda)
heavy: not shown
light: QSALTQPASVSGSPGQSITISCTGTGSDVGSYNLVSWYQQHPGKAPKLMIYGDSQRPSGVSNRFSGSKSGNTASLTISGLQAEDEADYYCCSYAGSGIYVFGTGTKVTVLGQPKANPTVTLFPPSSEELQANKATLVCLISDFYPGAVTVAWKADGSPVKAGVETTKPSKQSNNKYAASSYLSLTPEQWKSHRSYSCQVTHEGSTVEKTVAPTECS
notes: It was immobilized by amine coupling in the SPR assay
- Kd [1]: 1.5 nM
- koff [1]: 0.00035 s⁻¹
- kon [1]: 240000 M⁻¹ s⁻¹
- Kd [2]: 1.9 nM
- koff [2]: 0.00028 s⁻¹
- kon [2]: 150000 M⁻¹ s⁻¹
